Test results from the nanobody polyreactivity screen of Harvey et al. (2022).

Test: yeast display, Sf9 membrane polyspecificity reagent, FACS + sequencing; frameworks hold sequencing errors
How it was run: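 Synthetic nanobody libraries on Saccharomyces cerevisiae BJ5465 were galactose-induced for 36–48 hours, stained 1 hour at 4 °C with 10% biotinylated, detergent-solubilized Sf9 membrane reagent and enriched on streptavidin microbeads. FACS then separated cells into low and high (top ~1%) gates by anti-HA (expression) and streptavidin (reagent binding) fluorescence. Genes were colony-PCR amplified, MiSeq 2 × 250 sequenced and CDR-length filtered. A clone's polyreactivity label is that of its gate of origin.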

| Sequence | polyreactivity (PSR sort gate) |
| --- | --- |
| QVQLVESGGGLVQAGGSLRLSCAASGGTFGSNAMGWYRQAPGKERELLAAISFSDGITYYADSVKGRFTISRDNAKNTVYLQMNSLKPEDSAVYYCAAELGTSRGGDTMEYWGQGTKVTVSS | high polyreactivity |
| QVQLVESGGGLVQAGGSLRLSCAASGGTFGVYTMGWYRQAPGKERELVAAISWSGGSTYYADSVKGRFTISRDNAKNTVYLQMNSLKPEDTAVYYCAARLKYGRIRVDHWGQGTQVTVSS | high polyreactivity |
| QVQLVESGGGLVQAGGSLRLSCAASGGTFIMYAMGWYRQAPGKERELVASITWSGGRTYYADSVKGRFTISRDNSKNTVYLQMNSLKPEDTAVYYCNTPPSYIMDYWGQGTQVTVSS | low polyreactivity |
| QVQLVESGGGLVQAGGSLRLSCAASGGTFIRYAMGWYRQAPGKEREFVAAISASGGSTYYADSVKGRFTISRDNAKNTVYLQMNSLKPEDTAVYYCAARRTNLPVKFYYWGQGTQVTVSS | high polyreactivity |
| QVQLVESGGGLVQAGGSLRLSCAASGGTFKTNAMGWYRQAPGKERELVAAITGSGTSTYYADSVKGRFTISRDNAKYTVYLQMNSLKPEDTAVYYCAADKLYQPGIGDDYWGQGTQVTVSS | low polyreactivity |
| QVQLVESGGGLVQAGGSLRLSCAASGGTFLFYGMGWYRQAPGKERELVAVITWSGGSTYYADSVKGRFTISRDNAKNTVYLQMNSLKPEDTAVYYCNAANTGSPDYQSIGYNFNYWGQGTQVTVSS | low polyreactivity |
| QVQLVESGGGLVQAGGSLRLSCAASGGTFLGNAMGWYRQAPGKERELVADITSGGSTNYADSVKGRFTITRDNAKNTVYLQMNSLKPEDTAVYYCNARWWFQLYYYSTFAGYNYWGQGTQVTVSS | low polyreactivity |
| QVQLVESGGGLVQAGGSLRLSCAASGGTFLYYAMGWYRQAPGKERELVAAISSSTGSTNYADSVKGRFTISRDNAKNTVYLQMNSLKPEDTAVYYCAAAPHRHSWYYTRHPYFCMDYWGQGTQVTVSS | low polyreactivity |
| QVQLVESGGGLVQAGGSLRLSCAASGGTFNGNTMGWYRQAPGKERELVAVIDWSGGSTYYADSVKGRFTISRDNAKNTVYLQMNSLKPEDTAVYYYNADSDAQFREPKGLYYWGQGTQVTVSS | low polyreactivity |
| QVQLVESGGGLVQAGGSLRLSCAASGGTFNQYAMGWYRQAPGKEREFVASISRRGGSTYYADSVKGRFTISRDNAKNTVYLQMNSLKPEDTAVYYCAADAFFRLDYYYWGQGTQVTVSS | high polyreactivity |
| QVQLVESGGGLVQAGGSLRLSCAASGGTFNTYAMGWYRQAPGKERELVAAITSSGGSTFYADSVKGRFTISRDNAKNTVYLQMNSLKPEDTAVYYCAAKSYWTIVYRHPGYYYWGQGTQVTVSS | low polyreactivity |
| QVQLVESGGGLVQAGGSLRLSCAASGGTFPWYTMGWYRQAPGKERELFAAISWRGGRTYYADSVKGRFTISRDNAKNTVYLQMNSLKPEDTAVYYCAATPRYRVYYGSYYLRYDYWGQGTQVTVSS | high polyreactivity |
| QVQLVESGGGLVQAGGSLRLSCAASGGTFQAYAMGWYSQAPGKDREFDAAITAGGGSTSYADSVKGRFTISRDNAKNTVDLQLNRLKPEDSAAYYCAVDGGFPVTDYDYWGQGTQVTVST | low polyreactivity |
| QVQLVESGGGLVQAGGSLRLSCAASGGTFQYYTMGWYRQAPGKERELVAGISSGGSTYYPDSVKGRFTISRDNAMNTVYLQMNRLKPEVTAVYYCNAVSRRKTYGYRIIKYDYWGQGTQVTVSS | high polyreactivity |
| QVQLVESGGGLVQAGGSLRLSCAASGGTFRAYVMGWYRQAPGKERELVAAISRSGTRTYYADSVKGRFTISRDNAKNTVYSQLNSLKPEDTAVYYCAAAANSWLFDYWGQGTQVTVSS | high polyreactivity |
| QVQLVESGGGLVQAGGSLRLSCAASGGTFRGYAMGWYRQATGKERELVAAITYSGGRTYYADSVKGRFTISRDNAKNTVYLQMNSLKPEDTAVYYCNAQSSGRLSYRYDYWGQGTQVTVSS | high polyreactivity |
| QVQLVESGGGLVQAGGSLRLSCAASGGTFRKNTMGWYRQAPGKERELVAAITRRADRTYYADSVKGRFTISRDNAKNTVYLQMNSLKPEDTAVYYCNAPPPPTKVGGYDYWGQGTQVTVSS | high polyreactivity |
